According to patent US20190352405A1 (I MAB BIOPHARMA US, published 2019):

Experiments:
[1] = molecular target: T1, recombinant PD-L1 protein (human PD-L1-his taq) (human, UniProt Q9NZQ7 19-238); assay: SPR (Biacore T200), antibody captured by anti-human Fc on CM5 chip, PD-L1-his as analyte
T1 construct: also called human PD-L1-his taq protein; his-PDL1; not shown: his tag
Procedure: A series of dilutions of human PD-L1-his taq protein were injected over captured antibody for 3 mins at a flow rate of […]. The antigen was allowed to dissociate for 900s. All the experiments were carried out on a Biacore T200. Data analysis was carried out using Biacore T200 evaluation software.

[2] = molecular target: T2, PD-L1 expressed on Raji cells (PDL1-Raji cells) (UniProt Q9NZQ7 19-290, limits assumed); assay: FACS on PDL1-Raji cells, Alexa 488 anti-human IgG secondary antibody, MFI; the EC50 table has no unit, nM is taken from the x axis (Log [Conc.] / nM)
T2 construct: whole, on cells; also called mammalian expressed PD-L1
Procedure: After washing by FACS buffer (PBS with 2% FBS), the Alexa 488-anti-human IgG antibody was added to each well and incubated at RT for 1 hour. The MFI of Alexa 488 were evaluated by FACSAriaIII.

[3] = molecular target: T3, IL7 receptor (IL7R) on human primary CD4+ T cells (human, UniProt P16871 21-459); assay: FACS on human primary CD4+ T cells, 4 °C for 30 min, PE anti-human Fc secondary antibody, MFI; fit value printed for a nearly flat control curve; the EC50 column has no unit, nM is taken from the x axis (Log [Conc.] / nM)
T3 construct: whole, on cells; Native receptor on cells; also called surface IL7R; CD127 (IL7Ra)
T3 sequence (looked up): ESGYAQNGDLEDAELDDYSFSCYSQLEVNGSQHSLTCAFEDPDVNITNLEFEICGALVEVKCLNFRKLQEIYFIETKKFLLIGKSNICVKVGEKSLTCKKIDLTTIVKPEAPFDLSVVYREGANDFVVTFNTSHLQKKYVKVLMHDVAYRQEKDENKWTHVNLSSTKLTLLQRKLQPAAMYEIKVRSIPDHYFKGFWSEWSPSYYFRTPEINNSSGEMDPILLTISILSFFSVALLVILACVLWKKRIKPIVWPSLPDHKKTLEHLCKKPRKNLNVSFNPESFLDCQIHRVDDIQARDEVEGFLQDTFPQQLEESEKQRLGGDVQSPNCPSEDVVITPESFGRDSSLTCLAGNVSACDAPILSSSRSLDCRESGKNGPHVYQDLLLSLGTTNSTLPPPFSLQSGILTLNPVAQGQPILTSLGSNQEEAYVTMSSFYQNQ
Procedure: PE-conjugated anti-human Fc secondary antibody were used to detect the fusion molecules that bound to the IL7R of CD4⁺ T cells by FACS. […] For ligation-mediated receptor internalization assay, human primary CD4⁺ T cells were cocultured with fusion molecules at 37° C. for 15 mins. PE-cy7-conjugated-anti-CD127 (IL7Ra) antibody was used to detect the surface IL7R by FACS.

T1 sequence (Q9NZQ7 19-238 limits assumed): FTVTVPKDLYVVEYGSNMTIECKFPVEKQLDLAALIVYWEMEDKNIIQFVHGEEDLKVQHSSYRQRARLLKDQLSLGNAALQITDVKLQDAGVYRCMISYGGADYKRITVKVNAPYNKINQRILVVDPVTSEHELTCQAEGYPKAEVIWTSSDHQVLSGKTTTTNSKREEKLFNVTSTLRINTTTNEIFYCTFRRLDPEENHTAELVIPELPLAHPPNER
T2 sequence (Q9NZQ7 19-290 limits assumed): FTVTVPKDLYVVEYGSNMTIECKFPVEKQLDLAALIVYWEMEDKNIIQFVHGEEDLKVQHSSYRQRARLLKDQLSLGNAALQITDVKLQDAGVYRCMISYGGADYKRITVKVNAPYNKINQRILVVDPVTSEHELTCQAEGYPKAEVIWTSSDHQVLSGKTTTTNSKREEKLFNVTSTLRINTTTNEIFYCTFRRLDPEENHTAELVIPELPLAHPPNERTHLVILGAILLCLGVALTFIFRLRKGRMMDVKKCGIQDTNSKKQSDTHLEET

B1: Anti-PDL1 mAb (antibody, V domains shown)
VH: EVQLVESGGGLVQPGGSLRLSCAASGFTFSSYDMSWVRQAPGKSLEWVATISDAGGYIYYSDSVKGRFTISRDNAKNSLYLQMNSLRDEDTAVYICAREFGKRYALDYWGQGTTVTVSS
VL: DIQMTQSPSSLSASVGDRVTITCKASQDVTPAVAWYQQKPGKAPKLLIYSTSSRYTGVPSRFSGSGSGTDFTFTISSLQPEDIATYYCQQHYTTPLTFGQGTKLEIK
notes: also called anti-PDL1 monoclonal antibody; anti-PDL1 antibody
Kd [1]: 2.09 nM | koff [1]: 0.000178 s⁻¹ | kon [1]: 85000 M⁻¹ s⁻¹ | EC50 [2]: 7.99 nM | EC50 [3]: 35 nM
